The results in this text go back to patent US20230227565A1 (OSE IMMUNOTHERAPEUTICS, published 2023).

The target of assay [1] is T1, recombinant hCD32a/FcγRIIa (human, UniProt P12318 36-218).
T1 construct: Bought recombinant protein, immobilized on plastic at 2 µg/ml
T1 sequence (looked up): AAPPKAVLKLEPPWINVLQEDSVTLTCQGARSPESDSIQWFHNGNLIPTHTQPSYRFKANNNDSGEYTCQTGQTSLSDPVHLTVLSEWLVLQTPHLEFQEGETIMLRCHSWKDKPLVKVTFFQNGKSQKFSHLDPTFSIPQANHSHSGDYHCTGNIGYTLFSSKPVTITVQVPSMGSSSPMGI
Description: ELISA, recombinant FcγR immobilized at 2 µg/ml, detection with peroxidase-labeled anti-human IgG. A general note: ELISA stands for enzyme-linked immunosorbent assay.

The next assay has as its target T2, recombinant hCD64/FcγRI (human, UniProt P12314 16-288).
T2 construct: Bought recombinant protein, immobilized on plastic at 2 µg/ml
Described as above.

Assay [2] addresses T3, recombinant hCD16a/FcγRIIIa (human, UniProt P08637 17-208).
T3 construct: Bought recombinant protein, immobilized on plastic at 2 µg/ml
The description is as above.

The target of assay [3] is T4, human CD127 (Interleukin-7 receptor subunit alpha) (human, UniProt P16871 21-459).
T4 construct: Endogenous CD127 on human ALL cell lines (HPB-ALL, DND41, 697, NALM6, REH) and on patient cells; no signal peptide limits are stated; also called IL7R-a; IL-7R
T4 sequence: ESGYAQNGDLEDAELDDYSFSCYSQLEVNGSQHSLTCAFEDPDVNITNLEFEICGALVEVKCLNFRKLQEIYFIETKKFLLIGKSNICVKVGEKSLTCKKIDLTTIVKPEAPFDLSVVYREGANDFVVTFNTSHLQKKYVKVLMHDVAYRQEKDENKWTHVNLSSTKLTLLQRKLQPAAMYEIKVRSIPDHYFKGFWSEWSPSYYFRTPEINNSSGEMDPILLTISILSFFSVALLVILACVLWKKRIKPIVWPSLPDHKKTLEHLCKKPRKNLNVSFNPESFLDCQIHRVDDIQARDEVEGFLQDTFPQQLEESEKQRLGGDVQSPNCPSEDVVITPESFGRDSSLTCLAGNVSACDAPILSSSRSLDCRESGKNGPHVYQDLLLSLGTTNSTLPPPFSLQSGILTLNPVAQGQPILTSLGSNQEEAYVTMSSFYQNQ
Description: flow cytometry on ALL cell lines, 10 ug/mL antibody, fold change of PE geometric mean against isotype control. A general note: A flow cytometer gives signals particle by particle.

T3 sequence (P08637 17-208 limits assumed): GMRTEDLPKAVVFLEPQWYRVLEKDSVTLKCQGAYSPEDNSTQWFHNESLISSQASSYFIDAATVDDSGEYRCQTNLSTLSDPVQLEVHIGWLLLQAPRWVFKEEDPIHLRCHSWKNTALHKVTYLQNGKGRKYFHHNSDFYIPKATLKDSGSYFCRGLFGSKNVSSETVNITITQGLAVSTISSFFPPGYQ
T2 sequence (P12314 16-288 limits assumed): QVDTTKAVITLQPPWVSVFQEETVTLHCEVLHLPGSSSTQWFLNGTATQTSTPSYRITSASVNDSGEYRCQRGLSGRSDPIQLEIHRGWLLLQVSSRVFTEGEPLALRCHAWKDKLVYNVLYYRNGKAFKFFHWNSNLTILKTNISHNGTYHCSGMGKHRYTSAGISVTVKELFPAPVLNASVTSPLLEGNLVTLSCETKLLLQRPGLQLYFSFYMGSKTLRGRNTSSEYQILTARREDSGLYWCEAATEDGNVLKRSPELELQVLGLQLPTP

B1: N13B2-hVL6 (antibody, human IgG4 S228P, kappa)
heavy: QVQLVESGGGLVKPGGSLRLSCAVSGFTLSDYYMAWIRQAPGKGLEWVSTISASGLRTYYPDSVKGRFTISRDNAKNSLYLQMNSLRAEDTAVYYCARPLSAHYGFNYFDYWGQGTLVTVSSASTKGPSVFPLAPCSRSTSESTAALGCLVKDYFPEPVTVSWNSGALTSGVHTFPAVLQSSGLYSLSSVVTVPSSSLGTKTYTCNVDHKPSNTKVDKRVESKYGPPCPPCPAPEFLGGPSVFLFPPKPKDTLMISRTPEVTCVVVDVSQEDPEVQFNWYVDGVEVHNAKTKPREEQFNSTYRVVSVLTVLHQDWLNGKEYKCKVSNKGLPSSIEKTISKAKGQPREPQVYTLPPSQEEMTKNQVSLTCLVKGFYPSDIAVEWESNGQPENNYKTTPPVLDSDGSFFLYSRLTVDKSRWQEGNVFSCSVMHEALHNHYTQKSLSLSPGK
light: DIQMTQSPSSLSASVGDRVTITCRTSEDIYQGLAWYQQKPGKAPKLLLYSANTLHIGVPSRFSGSGSGTDYTLTISSLQPEDFATYYCQQYYDYPLAFGGGTKVEIKRTVAAPSVFIFPPSDEQLKSGTASVVCLLNNFYPREAKVQWKVDNALQSGNSQESVTEQDSKDSTYSLSSTLTLSKADYEKHKVYACEVTHQGLSSPVTKSFNRGEC
notes: Humanized antagonist anti-CD127 IgG4 antibody; also called NB13B2-hVL6; N13B6-hVL6; copies: 2 + 2
In the case of B1, the binding result in assay [1] is on record as “no binding”; with recombinant hCD64/FcγRI it was “no binding”; in assay [2] it was “no binding”; in assay [3], “binds”.
